For two substances, SNARE-dependent activation of the ATPase activity of NSF (coupled ATPase assay, 37 °C, with α-SNAP, KCl and NaCl omitted) and SNARE-dependent activation of the ATPase activity of NSF (coupled ATPase assay, 37 °C; activation was dependent on α-SNAP) results are on record in PMC4520572.

This assay concerns the target soluble neuronal SNARE complex (unlabeled) (UniProt P32851).

Chain of soluble neuronal SNARE complex (unlabeled) (P32851 1-265 S249C/K253C, chain 1 of 3): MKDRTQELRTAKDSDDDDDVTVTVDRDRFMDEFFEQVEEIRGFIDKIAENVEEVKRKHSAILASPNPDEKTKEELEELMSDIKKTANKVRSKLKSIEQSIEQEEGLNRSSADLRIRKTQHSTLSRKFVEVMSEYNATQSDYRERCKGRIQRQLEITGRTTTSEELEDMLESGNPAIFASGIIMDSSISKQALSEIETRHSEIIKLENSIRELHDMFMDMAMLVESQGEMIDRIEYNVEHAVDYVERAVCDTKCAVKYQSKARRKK
Chain of soluble neuronal SNARE complex (unlabeled) (P60881 other isoform, or with tags, fused parts or gaps, chain 2 of 3, further chain): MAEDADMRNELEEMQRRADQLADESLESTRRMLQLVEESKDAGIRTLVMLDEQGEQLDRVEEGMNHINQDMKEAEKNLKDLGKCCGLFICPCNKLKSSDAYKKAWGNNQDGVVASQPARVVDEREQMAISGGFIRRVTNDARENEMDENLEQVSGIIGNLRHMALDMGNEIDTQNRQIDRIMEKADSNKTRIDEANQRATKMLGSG
Chain of soluble neuronal SNARE complex (unlabeled) (P63045 1-96, chain 3 of 3, further chain): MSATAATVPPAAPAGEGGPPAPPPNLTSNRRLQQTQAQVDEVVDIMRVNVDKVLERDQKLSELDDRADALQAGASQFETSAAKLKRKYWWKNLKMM
Chain of α-soluble NSF attachment protein (α-SNAP) (P54921 whole entry): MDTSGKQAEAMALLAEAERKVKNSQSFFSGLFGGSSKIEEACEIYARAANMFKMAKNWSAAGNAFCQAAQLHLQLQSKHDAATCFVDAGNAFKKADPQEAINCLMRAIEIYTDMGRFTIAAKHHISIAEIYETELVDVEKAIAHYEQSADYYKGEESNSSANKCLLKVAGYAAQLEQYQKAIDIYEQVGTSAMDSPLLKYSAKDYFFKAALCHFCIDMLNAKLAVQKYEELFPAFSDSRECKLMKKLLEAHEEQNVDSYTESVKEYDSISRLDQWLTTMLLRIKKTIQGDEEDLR
Chain of N-Ethylmaleimide-sensitive factor (NSF) (P18708 whole entry): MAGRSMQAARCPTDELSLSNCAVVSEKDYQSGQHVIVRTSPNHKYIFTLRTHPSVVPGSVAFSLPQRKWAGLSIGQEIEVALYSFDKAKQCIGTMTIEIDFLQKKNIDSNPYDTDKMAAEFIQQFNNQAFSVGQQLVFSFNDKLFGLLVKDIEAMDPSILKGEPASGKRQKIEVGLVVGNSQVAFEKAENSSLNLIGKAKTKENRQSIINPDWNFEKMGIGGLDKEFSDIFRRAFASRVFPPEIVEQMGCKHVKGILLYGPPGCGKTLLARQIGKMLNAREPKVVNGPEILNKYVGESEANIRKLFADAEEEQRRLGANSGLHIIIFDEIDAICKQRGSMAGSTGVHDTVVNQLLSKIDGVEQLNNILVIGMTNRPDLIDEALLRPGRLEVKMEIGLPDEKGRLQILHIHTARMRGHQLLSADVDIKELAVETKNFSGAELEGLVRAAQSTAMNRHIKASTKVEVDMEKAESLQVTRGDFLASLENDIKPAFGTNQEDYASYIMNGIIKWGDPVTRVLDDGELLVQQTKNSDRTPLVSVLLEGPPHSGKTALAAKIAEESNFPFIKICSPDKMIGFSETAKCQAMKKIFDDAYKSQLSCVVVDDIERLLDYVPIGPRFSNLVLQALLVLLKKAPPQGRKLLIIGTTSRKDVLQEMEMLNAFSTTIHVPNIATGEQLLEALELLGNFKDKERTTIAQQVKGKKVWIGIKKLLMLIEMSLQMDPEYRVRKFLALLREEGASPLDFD

In turn, “N-Ethylmaleimide-sensitive factor (NSF) (from UniProt P18708 1-744) (enzyme)” displayed an SNARE-dependent activation of the ATPase activity of NSF (coupled ATPase assay, 37 °C, with α-SNAP, KCl and NaCl omitted) of 26 fold. In the case of “α-soluble NSF attachment protein (α-SNAP) (from UniProt P54921 1-295) (natural protein)”, the SNARE-dependent activation of the ATPase activity of NSF (coupled ATPase assay, 37 °C; activation was dependent on α-SNAP) was determined as 26 fold.
